Paper PMC10517005, “A conserved membrane protein negatively regulates Mce1 complexes in mycobacteria” (Nature Communications, 2023)

Substrate: Nc1ncnc2c1ncn2[C@@H]1O[C@H](COP(=O)(O)OP(=O)(O)OP(=O)(O)O)[C@@H](O)[C@H]1O
Assay: NADH-coupled ATPase assay (pyruvate kinase / lactate dehydrogenase), fit with Hill coefficient
Format: biochemical, Mycolicibacterium smegmatis
Conditions: 0.1 μM complex in 0.05% DDM micelles, 20 mM Tris-HCl pH 8.0, 150 mM NaCl, 5 mM MgCl2, 10% glycerol, 37 °C, Michaelis-Menten with Hill term (n = 1.28 ± 0.57)

B1: YrbE1A/B-MceG (core ABC transporter of the Mce1 system) (Mycolicibacterium smegmatis MC2 155) (protein)
chain: MGVQIDVTGLSKSFGSSKIWEDVTMSIPAGEVSVLLGPSGTGKSVFLKSLIGLLRPERGSIVIDGTDILQCSAKELYEIRTLFGVLFQDGALFGSMNIYDNTAFPLREHTKKSESEIRKIVMEKLDLVGMPNDGHKFPGEISGGMRKRAGLARALVLDPEIILCDEPDSGLDPVRTAYLSQLLIDINAQIDATVLIVTHNINIARTVPDNMGMLFRKQLVMFGPREVLLTSEEPVVKQFLNGRRIGPIGMSEEKDEATAAAEQALVDAGQHDGGVEEIEGVPPQLQATPGMPERKAVARRKARVREILHTLPPAAQAAILEELDRDQPQLSAPTTQTAATAPVENYDDSPTGVIEVPKQA
notes: YrbE1A, His6-YrbE1B and MceG co-expressed in E. coli BL21(λDE3); DDM-solubilised, TALON and SEC purified; with ABC transporter permease YrbE1A (Mce1 transmembrane domain protein); ABC transporter permease YrbE1B (Mce1 transmembrane domain protein)
- Km: 284 ± 311 µM
- kcat: 0.184 ± 0.125 μM ATP s^−1/μM complex
